The values below come from patent US20060067930A1 (Genentech, published 2006).

This test has as its target T1, human FcγRIII (V158).
T1 construct: also called FcγRIIIA-Val158; CD16
In words: ELISA of 2H7 variants binding to human FcγRIII (V158).

T1 sequence (chain, as listed by the source limits assumed): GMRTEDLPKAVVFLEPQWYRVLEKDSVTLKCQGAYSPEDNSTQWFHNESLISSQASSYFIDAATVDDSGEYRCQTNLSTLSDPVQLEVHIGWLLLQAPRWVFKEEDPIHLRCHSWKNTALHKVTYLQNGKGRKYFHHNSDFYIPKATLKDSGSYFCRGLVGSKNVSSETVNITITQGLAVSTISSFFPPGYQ

B1: 2H7.v16 (antibody, human IgG1, kappa)
light chain: DIQMTQSPSSLSASVGDRVTITCRASSSVSYMHWYQQKPGKAPKPLIYAPSNLASGVPSRFSGSGSGTDFTLTISSLQPEDFATYYCQQWSFNPPTFGQGTKVEIKRTVAAPSVFIFPPSDEQLKSGTASVVCLLNNFYPREAKVQWKVDNALQSGNSQESVTEQDSKDSTYSLSSTLTLSKADYEKHKVYACEVTHQGLSSPVTKSFNRGEC
heavy chain: not shown
notes: Humanized anti-CD20 antibody with no Fc changes; also called humanized 2H7v.16; 2H7 version 16
As to B1, the binding result is recorded as “binds”.

B2: 2H7.v375 (antibody, human IgG1, kappa)
light: B1 light chain
heavy: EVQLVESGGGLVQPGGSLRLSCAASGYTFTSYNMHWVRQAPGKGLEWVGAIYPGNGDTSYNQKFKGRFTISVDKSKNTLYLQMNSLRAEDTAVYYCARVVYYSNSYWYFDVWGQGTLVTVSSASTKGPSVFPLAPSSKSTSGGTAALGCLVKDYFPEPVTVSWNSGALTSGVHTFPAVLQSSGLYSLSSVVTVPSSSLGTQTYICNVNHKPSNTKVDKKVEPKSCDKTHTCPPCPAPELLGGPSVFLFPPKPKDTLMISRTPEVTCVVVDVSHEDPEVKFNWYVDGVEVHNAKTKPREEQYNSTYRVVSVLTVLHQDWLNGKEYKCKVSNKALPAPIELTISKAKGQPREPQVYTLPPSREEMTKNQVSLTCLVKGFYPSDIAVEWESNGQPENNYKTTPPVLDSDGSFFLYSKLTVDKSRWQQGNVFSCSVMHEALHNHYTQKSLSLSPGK
notes: copies: 2 + 2
Turning to B2, the half-maximal effective concentration (EC50 (read off the curve)) is around 600 ng/mL.

Usually EC50 (read off the curve) stands for the concentration at which the effect is half-maximal. Low readings indicate greater potency, high ones weaker potency.
